According to publication PMC5016126:

Biological target: FLAG-GLUT4 (GLUT4 tagged at the N and C termini with FLAG and His9, tags not cleaved) (UniProt P19357)
Assay: SDS-PAGE and Western blot; anti-FLAG immunoblot of purified FLAG-GLUT4 before and after TEV protease cleavage (0, 3 and 24 h) in LMNG detergent micelles or in 70% egg PC, 15% POPA, 15% POPE liposomes

## FLAG-GLUT4 (GLUT4 tagged at the N and C termini with FLAG and His9, tags not cleaved) (from UniProt P19357 1-509) (natural protein)
  stoichiometry N: 2
